In PMC7959842, “Deregulation of Factor H by Factor H-Related Protein 1 Depends on Sialylation of Host Surfaces” (Frontiers in Immunology, 2021):

Experiments:
C3b [1] = target: C3b (UniProt P01024); experiment: SPR; AP C3 convertase formation: ~6,000 RU C3b amine-coupled on a CMD500M chip; FB (600 nM) + FD (100 nM) injected alone or mixed with analyte (9.6 uM); signal of the analyte alone subtracted; 25 C, PBS 0.005% Tween20, 1 mM MgCl2
C3b [2] = target: C3b (UniProt P01024); experiment: SPR; C3b immobilised in two ways: biotin coupling (~1,500 RU on a streptavidin SAP chip) and amine coupling (~7,250 RU on a CMD500M chip); analytes flowed (FH18-20 constructs 0.16-40 or 0.63-40 uM, FHR-1 constructs 0.04-10 uM); 25 C, PBS 0.005% Tween20, 25 ul/min; 1:1 steady-state affinity fit; the printed ranges span both ways of immobilisation

Row | decrease of the AP C3 convertase signal (FB + FD on C3b) with the analyte co-injected at 9.6 uM (C3b [1]) [%] | Kd (C3b [2]) [nM] | Substance
1 | 50 |  | FHR-1 (factor H-related protein 1, FHR-1*B, wild-type) (from UniProt Q03591 19-330) (natural protein)
2 | 50 | 1400 to 1500 | FHR-1(SV) (from UniProt Q03591 19-330) (natural protein)
